Measurements from patent US20190241648A1 (STATEN BIOTECHNOLOGY B V, published 2019).
Ends that are not written are not given here.

Tests used:
Experiment in all cases: peptide microarray
ApoC3 peptide … W65L = target: T1, ApoC3 peptide … W65L (human, not fully specified (bridges); also: cyclic constrained, ring type and places not given here)
T1 peptide: DKFSEFLDLDPEV
In short: (§1)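 ApoC3 peptide microarrays incubated with antibody samples and then stained with goat anti-human IgG (Fc) DyLight680 plus anti-HA DyLight800 control antibody. Scanned at intensity 7/7 (red/green); a secondary-only prestain checked for background, and framing HA peptides served as quality control.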

ApoC3 peptide … E70H = target: T2, ApoC3 peptide … E70H (human, not fully specified (bridges); also: cyclic constrained)
T2 peptide: DKFSEFWDLDPHV
In short: as §1

ApoC3 peptide … D66R = target: T3, ApoC3 peptide … D66R (human, not fully specified (bridges); also: cyclic constrained)
T3 peptide: DKFSEFWRLDPEV
In short: as §1

ApoC3 peptide … E70N = target: T4, ApoC3 peptide … E70N (human, not fully specified (bridges); also: cyclic constrained)
T4 peptide: DKFSEFWDLDPNV
In short: as §1

ApoC3 peptide … P69A = target: T5, ApoC3 peptide … P69A (human, not fully specified (bridges); also: cyclic constrained)
T5 peptide: DKFSEFWDLDAEV
In short: as §1

ApoC3 peptide … L67W = target: T6, ApoC3 peptide … L67W (human, not fully specified (bridges); also: cyclic constrained)
T6 peptide: DKFSEFWDWDPEV
In short: as §1

ApoC3 peptide … S62D = ApoC3 peptide … S62D (human, cyclic constrained)
In short: as §1

ApoC3 peptide … E70Y = target: T7, ApoC3 peptide … E70Y (human, cyclic constrained)
T7 peptide: DKFSEFWDLDPYV
In short: as §1

ApoC3 peptide … E63S = ApoC3 peptide … E63S (human, cyclic constrained)
In short: as §1

ApoC3 peptide … S62M = ApoC3 peptide … S62M (human, cyclic constrained)
In short: as §1

ApoC3 peptide … D68F = target: T8, ApoC3 peptide … D68F (human, cyclic constrained)
T8 peptide: DKFSEFWDLFPEV
In short: as §1

ApoC3 peptide … F61C = target: T9, ApoC3 peptide … F61C (human, cyclic constrained)
T9 peptide: DKCSEFWDLDPEV
In short: as §1

ApoC3 peptide … F64H = target: T10, ApoC3 peptide … F64H (human, not fully specified (bridges); also: cyclic constrained)
T10 peptide: DKFSEHWDLDPEV
In short: as §1

ApoC3 peptide … L67N = target: T11, ApoC3 peptide … L67N (human, not fully specified (bridges); also: cyclic constrained)
T11 peptide: DKFSEFWDNDPEV
In short: as §1

ApoC3 peptide … V71C = ApoC3 peptide … V71C (human, cyclic constrained)
In short: as §1

ApoC3 peptide … E70P = target: T12, ApoC3 peptide … E70P (human, not fully specified (bridges); also: cyclic constrained)
T12 peptide: DKFSEFWDLDPPV
In short: as §1

ApoC3 peptide … F61M = target: T13, ApoC3 peptide … F61M (human, not fully specified (bridges); also: cyclic constrained)
T13 peptide: DKMSEFWDLDPEV
In short: as §1

ApoC3 peptide … D68S = target: T14, ApoC3 peptide … D68S (human, not fully specified; cyclic constrained)
T14 peptide: DKFSEFWDLSPEV
In short: as §1

ApoC3 peptide … P69L = target: T15, ApoC3 peptide … P69L (human, not fully specified (bridges); also: cyclic constrained)
T15 peptide: DKFSEFWDLDLEV
In short: as §1

ApoC3 peptide … L67M = target: T16, ApoC3 peptide … L67M (human, not fully specified (bridges); also: cyclic constrained)
T16 peptide: DKFSEFWDMDPEV
In short: as §1

ApoC3 peptide … L67I = target: T17, ApoC3 peptide … L67I (human, not fully specified (bridges); also: cyclic constrained)
T17 peptide: DKFSEFWDIDPEV
In short: as §1

ApoC3 peptide … D59C = target: T18, ApoC3 peptide … D59C (human, cyclic constrained)
T18 peptide: CKFSEFWDLDPEV
In short: as §1

ApoC3 peptide … V71S = ApoC3 peptide … V71S (human, cyclic constrained)
In short: as §1

ApoC3 peptide … D68P = target: T19, ApoC3 peptide … D68P (human, cyclic constrained)
T19 peptide: DKFSEFWDLPPEV
In short: as §1

ApoC3 peptide … S62G = ApoC3 peptide … S62G (human, cyclic constrained)
In short: as §1

ApoC3 peptide … S62A = ApoC3 peptide … S62A (human, cyclic constrained)
In short: as §1

ApoC3 peptide … V71F = ApoC3 peptide … V71F (human, cyclic constrained)
In short: as §1

ApoC3 peptide … S62P = ApoC3 peptide … S62P (human, cyclic constrained)
In short: as §1

ApoC3 peptide … D59N = target: T20, ApoC3 peptide … D59N (human, cyclic constrained)
T20 peptide: NKFSEFWDLDPEV
In short: as §1

ApoC3 peptide … W65G = target: T21, ApoC3 peptide … W65G (human, not fully specified (bridges); also: cyclic constrained, ring type and places not given here)
T21 peptide: DKFSEFGDLDPEV
In short: as §1

ApoC3 peptide … L67C = target: T22, ApoC3 peptide … L67C (human, not fully specified (bridges); also: cyclic constrained)
T22 peptide: DKFSEFWDCDPEV
In short: as §1

ApoC3 peptide … K60P = target: T23, ApoC3 peptide … K60P (human, not fully specified (bridges); also: cyclic constrained)
T23 peptide: DPFSEFWDLDPEV
In short: as §1

ApoC3 peptide … D59Q = target: T24, ApoC3 peptide … D59Q (human, cyclic constrained)
T24 peptide: QKFSEFWDLDPEV
In short: as §1

ApoC3 peptide … E70W = target: T25, ApoC3 peptide … E70W (human, cyclic constrained)
T25 peptide: DKFSEFWDLDPWV
In short: as §1

ApoC3 peptide … E70K = target: T26, ApoC3 peptide … E70K (human, not fully specified (bridges); also: cyclic constrained)
T26 peptide: DKFSEFWDLDPKV
In short: as §1

ApoC3 peptide … F64C = target: T27, ApoC3 peptide … F64C (human, not fully specified (bridges); also: cyclic constrained)
T27 peptide: DKFSECWDLDPEV
In short: as §1

B1: anti-ApoC3 antibody 6A6 (antibody, V domains shown)
VH: EVQLVESGGGLVQPGGSLRLSCAASGFTFSSYAGRWVRQVPGKGLEWVSSINAGGGSTSYADSVKGRFTISRDNAKNTLYLQMNSLKPEDTAKYYCTQNSYRYWGQGTRVAVSS
VL: DVVLTQTPGSLSVVPGESASISCKASQSLIHTDGKTYLYWLLQKPGQRPQLLIYQVSSHESGVPDRFTGSGSGTDFTLKISGVKAEDAGVYYCAQATYNPRTFGQGTKLEIK
notes: it was detected with goat anti-human IgG (Fc); also called mAb 6A6; llama antibody 6A6
% of binding to wild-type peptide (ApoC3 peptide … W65L): 18.5% | % of binding to wild-type peptide (ApoC3 peptide … E70H): 0.03% | % of binding to wild-type peptide (ApoC3 peptide … D66R): 0% | % of binding to wild-type peptide (ApoC3 peptide … E70N): 0.15% | % of binding to wild-type peptide (ApoC3 peptide … P69A): 57.4% | % of binding to wild-type peptide (ApoC3 peptide … L67W): 1.26% | % of binding to wild-type peptide (ApoC3 peptide … S62D): 35% | % of binding to wild-type peptide (ApoC3 peptide … E70Y): 4.49% | % of binding to wild-type peptide (ApoC3 peptide … E63S): 35.2% | % of binding to wild-type peptide (ApoC3 peptide … S62M): 63.5% | % of binding to wild-type peptide (ApoC3 peptide … D68F): 0% | % of binding to wild-type peptide (ApoC3 peptide … F61C): 20.6% | % of binding to wild-type peptide (ApoC3 peptide … F64H): 107% | % of binding to wild-type peptide (ApoC3 peptide … L67N): 19.8% | % of binding to wild-type peptide (ApoC3 peptide … V71C): 100% | % of binding to wild-type peptide (ApoC3 peptide … E70P): 2.53% | % of binding to wild-type peptide (ApoC3 peptide … F61M): 56.5% | % of binding to wild-type peptide (ApoC3 peptide … D68S): 0.57% | % of binding to wild-type peptide (ApoC3 peptide … P69L): 36.8% | % of binding to wild-type peptide (ApoC3 peptide … L67M): 43.4% | % of binding to wild-type peptide (ApoC3 peptide … L67I): 105% | % of binding to wild-type peptide (ApoC3 peptide … D59C): 69.2% | % of binding to wild-type peptide (ApoC3 peptide … V71S): 84.7% | % of binding to wild-type peptide (ApoC3 peptide … D68P): 0% | % of binding to wild-type peptide (ApoC3 peptide … S62G): 53.9% | % of binding to wild-type peptide (ApoC3 peptide … S62A): 97.3% | % of binding to wild-type peptide (ApoC3 peptide … V71F): 85.4% | % of binding to wild-type peptide (ApoC3 peptide … S62P): 27.1% | % of binding to wild-type peptide (ApoC3 peptide … D59N): 77.5% | % of binding to wild-type peptide (ApoC3 peptide … W65G): 49.5% | % of binding to wild-type peptide (ApoC3 peptide … L67C): 1.13% | % of binding to wild-type peptide (ApoC3 peptide … K60P): 157% | % of binding to wild-type peptide (ApoC3 peptide … D59Q): 95% | % of binding to wild-type peptide (ApoC3 peptide … E70W): 2.84% | % of binding to wild-type peptide (ApoC3 peptide … E70K): 0% | % of binding to wild-type peptide (ApoC3 peptide … F64C): 76.4%
